Residue numbers refer to the chain shown, from its start. Names may count otherwise. Where two headings read alike, the source gives them in different places. Values belong to the binder of their own block, whether it stands above or below them.
How the values were obtained:
[1] = biological target: recombinant CD3e-CD3d heterodimer protein (Acro Biosystems) (UniProt P07766 23-126; P04234 22-105); experiment: SPR (Biacore 8K), CD3e-CD3d immobilized on CM5 chip, bispecific as analyte, 1:1 model
Procedure: (§1) Binding affinities of first-generation bispecific antibodies to recombinant CD3e-CD3d heterodimer protein (Acro Biosystems) or LILRB4 recombinant protein (Sino Biological) were measured by surface plasmon resonance using a Biacore 8K instrument. Briefly, CD3e-CD3d or LILRB4 protein was immobilized on a CM5 chip with EDC and NHS according to standard protocols. […] The chip was regenerated using 10 mM glycine pH 1.5 as the regeneration buffer. The sensorgrams for reference channel Fc1 and buffer channel were subtracted from the test sensorgrams and the experimental data was fitted by 1:1 binding model.

[2] = biological target: T1, recombinant human LILRB4 protein (Sino Biological, cat #16742-H08H) (human, UniProt Q8NHJ6 22-259); experiment: SPR (Biacore 8K), LILRB4 immobilized on CM5 chip, bispecific as analyte, 1:1 model
T1 construct: extracellular domain; also called LILRB4 recombinant protein (Sino Biological); Human LILRB4 ECD-his; not shown: his tag
Procedure: as §1

[3] = biological target: T2, human LILRB4 expressed on cells (human, UniProt Q8NHJ6 22-448); experiment: FACS (Geo MFI) on normal human monocytes; panel assigned to monocytes by the order in legend paragraph 86
T2 construct: whole, on cells; also called ILT3; CD85k

[4] = biological target: T2, human LILRB4 expressed on cells; experiment: cell-based or functional assay
[5] = biological target: T1, recombinant human LILRB4 protein (Sino …); experiment: BLI (Gator Bio), bispecific captured on anti-human Fc probe, human LILRB4 in solution, 1:1 global fit
Procedure: (§2) Binding affinities of second-generation bispecific antibodies were measured to recombinant human CD3e (Acro, cat #CDE-H5223), cyno CD3e (Acro, cat #CDE-C5226), human LILRB4 (Sino Biological, cat #16742-H08H), and cyno LILRB4 (Acro, cat #CDK-C5227) by Bio-Layer Interferometry (BLI) using an instrument from Gator Bio. Bispecific antibodies were captured using an immobilized anti-human Fc antibody (HFC) probe (Gator Bio, cat #PL168-160003) at 5 ug/mL load. […] Binding affinity constants were determined using a 1:1 fitting model (Global Fit) with Gator's data analysis software 1.6.1.1203, and the KD was calculated using the ratio Kdis/Kon.

[6] = biological target: T2, human LILRB4 expressed on cells; experiment: cell-based or functional assay; remark: listed apart in the source
CD3 on Jurkat cells = biological target: T3, CD3 on Jurkat cells (UniProt P07766 23-207); experiment: FACS on CD3+ Jurkat cells; estimated, curve did not reach a plateau
T3 construct: whole, on cells; on cells it stands in the whole CD3/TCR complex; also called CD3+ Jurkat cells
T3 sequence (P07766 23-207): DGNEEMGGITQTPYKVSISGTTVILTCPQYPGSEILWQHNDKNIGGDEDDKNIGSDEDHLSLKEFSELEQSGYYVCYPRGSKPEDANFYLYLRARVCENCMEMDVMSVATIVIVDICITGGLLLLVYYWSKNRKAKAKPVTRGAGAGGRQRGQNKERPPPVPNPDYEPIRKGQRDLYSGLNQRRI

[7] = biological target: T4, recombinant cyno LILRB4 (Acro, cat #CDK-C5227) (cynomolgus monkey); experiment: BLI (Gator Bio), bispecific captured on anti-human Fc probe, cyno LILRB4 in solution, 1:1 global fit
T4 construct: extracellular domain; also called cynomolgus monkey LILRB4 ECD-his recombinant protein (ACRObiosystems)
Procedure: as §2

[8] = biological target: T5, recombinant cyno CD3e (Acro, cat #CDE-C5226) (cynomolgus monkey, UniProt Q95LI5 22-117); experiment: BLI (Gator Bio), bispecific captured on anti-human Fc probe, cyno CD3e in solution, 1:1 global fit
T5 sequence (looked up): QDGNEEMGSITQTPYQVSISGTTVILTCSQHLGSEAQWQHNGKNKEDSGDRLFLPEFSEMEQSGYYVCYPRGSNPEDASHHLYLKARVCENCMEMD
Procedure: as §2

[9] = biological target: T2, human LILRB4 expressed on cells; experiment: FACS on LILRB4+ THP-1 cells, Alexa 647 anti-human IgG Fc detection
Procedure: Binding of first and second generation bispecifics to CD3 or LILRB4 was measured by FACS on Jurkat cells or THP-1 cells. To measure binding of bispecifics to THP-1 cells, THP-1 cells were first incubated with human Fc blocker (BD Pharmingen Catalog No. 564220) at 10 ug per one million cells at room temperature for 10 minutes, followed by incubated with serially diluted bispecifics for 30 minutes on ice. Cells were washed twice with BSA staining buffer (BD Pharmingen Catalog No. 554657) and incubated with secondary Alexa 647 conjugated anti-human IgG Fc monoclonal antibody (Biolegend Catalog No. 409306) at 5 ug/mL for 30 minutes on ice. After final wash, 7-AAD was applied to exclude dead cells. To measure binding of first generation bispecifics to Jurkat cells, each bispecific was diluted in buffer including 1% BSA (5-fold dilution series, 400 nM highest concentration) and incubated with cells for 30 minutes at 4° C. Then bispecifics were stained with Alexa 647 anti-human IgG Fc at 5 ug/mL at 4° C. for 0.5 hours before analysis.

[10] = biological target: recombinant human CD3e (Acro, cat #CDE-H5223) (human, UniProt P07766 23-126); experiment: BLI (Gator Bio), bispecific captured on anti-human Fc probe, human CD3e in solution, 1:1 global fit
Sequence of recombinant human CD3e (Acro, cat #CDE-H5223) (P07766 23-126 limits assumed): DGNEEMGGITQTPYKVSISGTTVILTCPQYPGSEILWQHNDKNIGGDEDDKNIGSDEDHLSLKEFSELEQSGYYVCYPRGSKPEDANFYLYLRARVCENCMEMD
Procedure: as §2

Sequence of recombinant CD3e-CD3d heterodimer protein (Acro Biosystems) (P07766 23-126 limits assumed, chain 1 of 2): as the sequence (P07766 23-126 limits assumed) above
Sequence of recombinant CD3e-CD3d heterodimer protein (Acro Biosystems) (P04234 22-105 limits assumed, chain 2 of 2): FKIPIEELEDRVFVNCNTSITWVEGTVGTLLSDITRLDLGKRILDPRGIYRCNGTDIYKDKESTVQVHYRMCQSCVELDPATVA

B1: 4-3ab (bispecific antibody, human IgG1, kappa, L234A L235A)
heavy 1: not shown
heavy 2: EVQLVESGGGLVQPGGSLRLSCAASGFSLSSSYWISWVRQAPGKGLEWIGSIDSGSVGITYYATWVKGRFTISRDNSKNTLYLQMNSLRAEDTAVYYCARHGDNWALDLWGQGTLVTVSSASTKGPSVFPLAPSSKSTSGGTAALGCLVKDYFPEPVTVSWNSGALTSGVHTFPAVLQSSGLYSLSSVVTVPSSSLGTQTYICNVNHKPSNTKVDKRVEPKSCDKTHTCPPCPAPEAAGGPSVFLFPPKPKDTLMISRTPEVTCVVVDVSHEDPEVKFNWYVDGVEVHNAKTKPREEQYNSTYRVVSVLTVLHQDWLNGKEYKCKVSNKALPAPIEKTISKAKGQPREPQVCTLPPSREEMTKNQVSLSCAVKGFYPSDIAVEWESNGQPENNYKTTPPVLDSDGSFFLVSKLTVDKSRWQQGNVFSCSVMHEALHNHYTQKSLSLSPG
light 1: DIVMTQSPDSLAVSLGERATINCKSSQSLLNSRTRKNYLAWYQQKPGQPPKLLIYWASTRQSGVPDRFSGSGSGTDFTLTISSLQAEDVAVYYCTQSHTLRTFGGGTKVEIKPDIQNPDPAVYQLRDSKSSDKSVCLFTDFDSQTQVSQSKDSDVYITDKCVLDMRSMDFKSNSAVAWSQKSDFACANAFQNSIIPEDTFFPSPESS
light 2: DIQMTQSPSTLSASVGDRVTITCRASQSISSWLAWYQQKPGKAPKLLIYKASTLASGVPSRFSGSGSGTEFTLTISSLQPDDFATYYCQHGYIRGDLDNVFGGGTKVEIKRTVAAPSVFIFPPSDEQLKSGTASVVCLLNNFYPREAKVQWKVDNALQSGNSQESVTEQDSKDSTYSLSSTLTLSKADYEKHKVYACEVTHQGLSSPVTKSFNRGEC
notes: LILRB4 arm from H7K3m5, CD3 arm from WO2019057099; human IgG1 constant domains with knob-in-hole and effector-reducing mutations; also called first-generation LILRB4/CD3 bispecific antibody No. 1
Kd [1]: 49600 pM
Kd [2]: 190 pM
EC50 (read off the curve) [3]: ~800 pM
Monocyte (max %), Donor 1 [4]: 43%
Monocyte (max %), Donor 2 [4]: 41%
Monocyte (max %), Donor 3 [4]: 13%
Monocyte killing EC50, Donor 2 [4]: 9.4 pM
T-cell cytotoxicity, THP-1 (max %) [4]: 98%
T-cell cytotoxicity, THP-1 EC50 [4]: 0.36 pM

B2: 4-3ab Q1E S91A (bispecific antibody, human IgG1, kappa, L234A L235A)
heavy 1: not shown
heavy 2: B1 heavy 2
light 1: B1 light 1 with S203A
light 2: B1 light 2
notes: Second-generation 1+1 bispecific, expressed in CHO-K1; also called Bispecific 2; 4-3ab (second generation)
Kd [5]: 840 pM
Autologous monocyte killing EC50 [6]: 0.026 nM
T-cell cytotoxicity, MV4-11 EC50 [6]: 2.5 pM
T-cell cytotoxicity, THP-1 EC50 [6]: 4.3 pM
EC50 (CD3 on Jurkat cells): ~854000 pM
Kd [7]: 9530 pM
Kd [8]: 70 pM
EC50 [9]: 1300 pM
Kd [10]: 100 pM

Now from value to binder, other results behind:

Kd [1]: 33400 pM
Kd [2]: 270 pM
EC50 (read off the curve) [3]: ~400 pM
Monocyte (max %), Donor 1 [4]: 43%
Monocyte (max %), Donor 2 [4]: 34%
Monocyte (max %), Donor 3 [4]: 32.5%
B3: 4ab-3 (bispecific antibody, human IgG1, kappa, L234A L235A)
heavy 1: not shown
heavy 2: EVQLVESGGGLVQPGGSLRLSCAASGFSLSSSYWISWVRQAPGKGLEWIGSIDSGSVGITYYATWVKGRFTISRDNSKNTLYLQMNSLRAEDTAVYYCARHGDNWALDLWGQGTLVTVLEDLKNVFPPEVAVFEPSEAEISHTQKATLVCLATGFYPDHVELSWWVNGKEVHSGVCTDPQPLKEQPALQDSRYALSSRLRVSATFWQNPRNHFRCQVQFYGLSENDEWTQDRAKPVTQIVSAEAWGRASDKTHTCPPCPAPEAAGGPSVFLFPPKPKDTLMISRTPEVTCVVVDVSHEDPEVKFNWYVDGVEVHNAKTKPREEQYNSTYRVVSVLTVLHQDWLNGKEYKCKVSNKALPAPIEKTISKAKGQPREPQVCTLPPSREEMTKNQVSLSCAVKGFYPSDIAVEWESNGQPENNYKTTPPVLDSDGSFFLVSKLTVDKSRWQQGNVFSCSVMHEALHNHYTQKSLSLSPG
light 1: not shown
light 2: DIQMTQSPSTLSASVGDRVTITCRASQSISSWLAWYQQKPGKAPKLLIYKASTLASGVPSRFSGSGSGTEFTLTISSLQPDDFATYYCQHGYIRGDLDNVFGGGTKVEIKPDIQNPDPAVYQLRDSKSSDKSVCLFTDFDSQTQVSQSKDSDVYITDKCVLDMRSMDFKSNSAVAWSQKSDFACANAFQNSIIPEDTFFPSPESS
notes: also called first-generation LILRB4/CD3 bispecific antibody No. 2
Monocyte killing EC50, Donor 2 [4]: 29 pM
Monocyte killing EC50, Donor 3 [4]: 9.25 pM
T-cell cytotoxicity, THP-1 (max %) [4]: 98.6%
T-cell cytotoxicity, THP-1 EC50 [4]: 0.084 pM

Kd [5]: 890 pM
EC50 (CD3 on Jurkat cells): ~257000 pM
Kd [7]: 8820 pM
Kd [8]: 260 pM
EC50 [9]: 700 pM
Kd [10]: 70 pM
B4: 4ab3-4ab S91A (bispecific antibody, human IgG1, kappa, L234A L235A)
heavy 1: not shown
heavy 2: B3 heavy 2
light 1: not shown
light 2: B3 light 2 with S201A
notes: Second-generation 2+1 bispecific, expressed in CHO-K1; also called Bispecific 1; 4ab3-4ab (second generation)
Autologous monocyte killing EC50 [6]: 0.0059 nM
T-cell cytotoxicity, MV4-11 EC50 [6]: 0.034 pM
T-cell cytotoxicity, THP-1 EC50 [6]: 0.5 pM
